Results reported in paper PMC11044963, “Probing the CRL4^DCAF12 interactions with MAGEA3 and CCT5 di-Glu C-terminal degrons” (PNAS Nexus, 2024).

Columns and labels:
[1] = test system: DCAF12 mutants K91A, K108A, R203A, R256A, R344A; test: NanoBRET with full-length proteins, DCAF12 mutants; format: cell-based, human; settings: HEK293T cells; FL protein; all DCAF12 mutations vs WT
Excerpt: Fig. 2. Conserved arginine and lysine residues near DCAF12 central channel participate in MAGEA3 binding in cells. A) DCAF12 electrostatic surface potential analysis showing negatively and positively charged residues colored in red and blue, respectively. On the left, DDB1 contacting surface of DCAF12. On the right, substrate contacting surface with positively charged residues—Arg203, Arg256, and Arg344—highlighted as sticks. Electrostatic potential is shown on a scale of −10 (red) kT/e to 10 (blue). B) Conservation analysis of DCAF12 showing high conservation of the same positively charged residues (represented as sticks) among homologous sequences. Residues were colored on a scale from variable/low conservation (dark teal) to high conservation (magenta). […]
(§1) HEK293T cells were plated in 96-well plates (2 × 10^4/well) and 4 h later transfected with 0.03 µg/well N-terminally HT-tagged DCAF12 (WT or mutants) or HT alone and 0.001 µg/well N-terminally NL-tagged CCT5 and MAGEA3 (FL or -EE degrons) using X-tremeGene HP transfection reagent (Roche), following the manufacturer's instructions. […] Four hours later, 10 µL of NanoBRET Nano-Glo Substrate solution (8 µL/mL Nano-Glo substrate (Promega) diluted in DMEM/F12 no phenol red, supplemented with 4% FBS, penicillin 100 U/mL, and streptomycin 100 µg/mL) was added, and the signal was read. […]

DCAF12 = test: NanoBRET with full-length proteins, DCAF12; format: cell-based, human; settings: HEK293T cells; FL protein
Excerpt: To further investigate the DCAF12 interaction with MAGEA3 and CCT5 in cells, we developed a NanoBRET assay, which measures the interaction of […] FL MEAGEA3/CCT5 or C-terminal peptide containing degron sequences ([…]/[…], respectively). When donor and acceptor proteins are in close proximity, the donor excites the acceptor, which then emits fluorescence, allowing for direct measurement of protein–protein interaction in cells.
as §1, with “read. Donor emission at 450 nm (filter: 450 nm/BP 80 nm) and acceptor emission at 618 nm (filter: 610 nm/LP) were measured within 10 min of substrate addition using CLARIOstar microplate reader (Mandel).” for “read.”

B1: MAGEA3-FL: full-length melanoma-associated antigen 3 protein (protein)
chain: MPLEQRSQHCKPEEGLEARGEALGLVGAQAPATEEQEAASSSSTLVEVTLGEVPAAESPDPPQSPQGASSLPTTMNYPLWSQSYEDSSNQEEEGPSTFPDLESEFQAALSRKVAELVHFLLLKYRAREPVTKAEMLGSVVGNWQYFFPVIFSKASSSLQLVFGIELMEVDPIGHLYIFATCLGLSYDGLLGDNQIMPKAGLLIIVLAIIAREGDCAPEEKIWEELSVLEVFEGREDSILGDPKKLLTQHFVQENYLEYRQVPGSDPACYEFLWGPRALVETSYVKVLHHMVKISGGPHISYPPLHEWVLREGEE
modifications: left off: NanoLuc, N-terminal, kept
notes: full-length melanoma-associated antigen 3 protein
In the case of B1, the “decrease of DCAF12 interaction by mutations, NanoBRET” value [1] is reported as “over 50%” and the “BRET signal over negative control” value (DCAF12) is reported as 22 fold.
